According to patent publication US20180273613A1 (SAMSUNG ELECTRONICS, published 2018):

Tests used:
BSA [1] = target: T1, BSA (bovine, UniProt P02769); test: Complex ELISA: BSA coated (4 µg/ml), 10D6 2 µg/ml, anti-mouse IgG-HRP, OD450
T1 construct: commercial preparation, not further described; also called Bovine serum albumin; BSA (Sigma)
Description: (§1) A 96-well MaxiSorp™ flat-bottom plate (Nunc) was coated with 4 μg/ml of Tie2-Fc (R&D systems) or BSA (Sigma). Then, the plate was washed five times with 0.05% (v/v) Tween-20-containing PBS (Phosphate Buffer Saline) and blocked with 1% (v/v) BSA (Bovine serum albumin; Sigma)-containing PBS at a room temperature for 2 hours. 0.25 μg/ml of Ang2 and 2 μg/ml of 10D6 antibody were added to each well of the plate, which was allowed to react at a room temperature for 2 hours and then washed five times with PBST. After that, an anti-mouse IgG antibody (Sigma) conjugated with HRP diluted in 1% (v/v) BSA-containing PBS at a ratio of 1:5,000 (v/v) was added in an amount of 100 μl to each well to react at a room temperature for 1 hour and then, the plate was washed five times with PBST. Lastly, 100 μl (microliter) of TMB substrate (Cell Signaling) was added to each well of the plate to induce color development for 3 min. and then, the reaction was ceased by the addition of 100 μl of Stop solution (Cell Signaling) and OD450 values were measured on a plate reader (Molecular Devices).

hTie2-Fc (R&D Systems) = target: T2, hTie2-Fc (R&D Systems) (human, UniProt Q02763 23-745); test: Complex ELISA: Tie2-Fc coated (4 µg/ml), 10D6 2 µg/ml without Ang2, anti-mouse IgG-HRP, OD450
T2 construct: Bought fusion protein, coated on the plate at 4 ug/ml; also called hTie-2/Fc fusion protein; not shown: Fc of human IgG1
T2 sequence (Q02763 23-745 limits assumed): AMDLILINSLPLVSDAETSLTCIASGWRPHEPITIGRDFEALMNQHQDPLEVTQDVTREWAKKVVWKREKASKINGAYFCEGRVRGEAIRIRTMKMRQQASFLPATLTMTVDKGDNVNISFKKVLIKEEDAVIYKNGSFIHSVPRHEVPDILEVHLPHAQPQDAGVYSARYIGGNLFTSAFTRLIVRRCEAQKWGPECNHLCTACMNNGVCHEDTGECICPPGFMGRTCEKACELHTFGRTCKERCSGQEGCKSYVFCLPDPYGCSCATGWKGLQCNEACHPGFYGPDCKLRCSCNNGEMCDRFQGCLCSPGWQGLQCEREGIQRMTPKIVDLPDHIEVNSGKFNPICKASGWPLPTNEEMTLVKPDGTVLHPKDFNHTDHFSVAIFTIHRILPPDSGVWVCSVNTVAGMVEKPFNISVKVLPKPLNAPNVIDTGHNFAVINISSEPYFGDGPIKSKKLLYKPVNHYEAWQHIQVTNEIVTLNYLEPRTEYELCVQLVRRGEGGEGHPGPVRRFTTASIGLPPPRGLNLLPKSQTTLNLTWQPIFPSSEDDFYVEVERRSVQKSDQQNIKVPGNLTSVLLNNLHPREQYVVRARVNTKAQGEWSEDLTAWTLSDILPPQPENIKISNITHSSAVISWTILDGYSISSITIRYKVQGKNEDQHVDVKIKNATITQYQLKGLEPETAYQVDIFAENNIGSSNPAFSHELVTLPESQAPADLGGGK
Description: as §1

BSA [2] = target: T1, BSA; test: Complex ELISA: BSA coated (4 µg/ml), FLAG-Ang2 0.25 µg/ml and 10D6 2 µg/ml, Ang2 on the plate shown indirectly by bound 10D6 (anti-mouse IgG-HRP, OD450)
Description: as §1

[3] = target: T3, recombinant hAng2 (C-His, R&D Systems) (human, UniProt O15123 19-496); test: SPR, BIAcore T100; hAng2 (C-His) captured on anti-His CM5 chip, antibody flowed
T3 construct: Bought protein (R&D Systems), captured on an anti-His chip in SPR; also called human Ang2 protein; Angiopoietin-2; not shown: C-terminal His tag
T3 sequence: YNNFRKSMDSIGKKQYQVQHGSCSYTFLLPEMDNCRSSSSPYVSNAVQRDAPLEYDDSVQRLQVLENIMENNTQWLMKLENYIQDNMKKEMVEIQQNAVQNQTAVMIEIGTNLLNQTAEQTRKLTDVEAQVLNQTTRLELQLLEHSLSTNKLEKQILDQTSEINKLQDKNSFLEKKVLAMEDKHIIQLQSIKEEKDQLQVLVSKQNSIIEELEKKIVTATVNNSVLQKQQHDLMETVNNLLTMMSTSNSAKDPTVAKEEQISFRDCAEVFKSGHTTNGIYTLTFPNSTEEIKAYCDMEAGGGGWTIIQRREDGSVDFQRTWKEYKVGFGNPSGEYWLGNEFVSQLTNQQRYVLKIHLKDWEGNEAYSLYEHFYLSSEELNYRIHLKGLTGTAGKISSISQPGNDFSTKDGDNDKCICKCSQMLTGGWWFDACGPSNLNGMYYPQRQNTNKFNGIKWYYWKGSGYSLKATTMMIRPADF
Description: The binding affinity (KD values) of the antibodies to human Ang2 protein was measured by an SPR method using a BIAcore T100 (GE Healthcare). 25 μg/ml anti-His antibody was immobilized on a CM5 sensor chip (GE healthcare) using a pH 5.0 acetate solution and an amine coupling kit (GE Healthcare). 6 μg/ml of a recombinant hAng2 (C-His, R&D Systems) protein was flowed onto the chip to be captured at 100 to 200 RU levels.

T1 sequence (P02769 25-607 limits assumed): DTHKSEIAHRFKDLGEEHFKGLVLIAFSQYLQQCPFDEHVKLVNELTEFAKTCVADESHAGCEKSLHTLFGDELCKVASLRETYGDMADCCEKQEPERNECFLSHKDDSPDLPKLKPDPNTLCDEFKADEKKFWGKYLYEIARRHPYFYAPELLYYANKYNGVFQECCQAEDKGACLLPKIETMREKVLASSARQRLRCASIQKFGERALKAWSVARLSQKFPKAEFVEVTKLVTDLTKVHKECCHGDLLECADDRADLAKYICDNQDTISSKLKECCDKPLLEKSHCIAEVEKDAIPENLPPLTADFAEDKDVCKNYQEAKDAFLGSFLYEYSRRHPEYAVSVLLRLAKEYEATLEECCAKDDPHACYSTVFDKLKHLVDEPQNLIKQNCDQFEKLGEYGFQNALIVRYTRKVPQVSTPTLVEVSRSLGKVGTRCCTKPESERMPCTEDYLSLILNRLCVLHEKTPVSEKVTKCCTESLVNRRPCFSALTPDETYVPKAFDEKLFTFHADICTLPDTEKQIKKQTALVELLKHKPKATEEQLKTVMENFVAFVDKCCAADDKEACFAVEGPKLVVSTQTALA

B1: SAIT-ANG2-AB-m10D6 (antibody, V domains shown)
VH: DVQLQESGPDLVKPSQSLSLTCTVTGYSITSDYAWNWIRQFPGNKLEWMGYINYSGNTDYNPSLKSRSSITRDTSKNQFFLQLNSVTTGDTATYYCARGNFEGAMDYWGQGTSVTVSS
VL: SIVMTQTPKFLLVSAGDRVTITCKASQSVSNDVAWYQQKPGQSPKLLIYYASNRYPGVPDRFTGSGYGTDFTFTISTVQAEDLAVYFCQQDYSSPWTFGGGTKLEIK
notes: Mouse monoclonal antibody from hybridoma KCLRF-BP-00295, purified on Protein G and detected with anti-mouse IgG; the mouse constant regions are not; also called mouse antibody 10D6; mouse anti-Ang2 antibody 10D6
**Q.** Which results are given for B1?
**A.** binding result (BSA [1]): no binding (tested: 2 µg/ml); binding result (hTie2-Fc (R&D Systems)): no binding (tested: 2 µg/ml)

B2: FLAG-tagged hAng2 (ligand)
chain: YNNFRKSMDSIGKKQYQVQHGSCSYTFLLPEMDNCRSSSSPYVSNAVQRDAPLEYDDSVQRLQVLENIMENNTQWLMKLENYIQDNMKKEMVEIQQNAVQNQTAVMIEIGTNLLNQTAEQTRKLTDVEAQVLNQTTRLELQLLEHSLSTNKLEKQILDQTSEINKLQDKNSFLEKKVLAMEDKHIIQLQSIKEEKDQLQVLVSKQNSIIEELEKKIVTATVNNSVLQKQQHDLMETVNNLLTMMSTSNSAKDPTVAKEEQISFRDCAEVFKSGHTTNGIYTLTFPNSTEEIKAYCDMEAGGGGWTIIQRREDGSVDFQRTWKEYKVGFGNPSGEYWLGNEFVSQLTNQQRYVLKIHLKDWEGNEAYSLYEHFYLSSEELNYRIHLKGLTGTAGKISSISQPGNDFSTKDGDNDKCICKCSQMLTGGWWFDACGPSNLNGMYYPQRQNTNKFNGIKWYYWKGSGYSLKATTMMIRPADF
notes: not shown: FLAG tag
**Q.** Does B2 bind (BSA [2])?
**A.** no binding (tested: 0.25 µg/ml)

B3: h10D6-OPTI-65 (antibody, V domains shown)
VH: QVQLQESGPGLVKPSETLSLTCAVSGYSITSDYAWNWIRQPPGKGLEWMGKISYSGKTDYNPSLKSRSTISRDTSKNQFSLKLSSVTAADTAVYYCARGNFEGAMDYWGQGTLVTVSS
VL: DIQMTQSPSSLSASVGDRVTITCKASQSVSNDVAWYQQKPGKAPKLLIYYASIPYPGVPSRFSGSGSGTDFTLTISSLQPEDFATYYCQQDYSSPWTFGQGTKLEIK
notes: also called HU2-6.6 / 10D6_VL-Hu1-2.4
**Q.** With B3 as the binder, how does the Kd [3] read?
**A.** 0.0454 nM

**Q.** And the kon [3]?
**A.** 496000 M⁻¹ s⁻¹
